From US20240400686A1

Target: Human CD3εδ (human) (UniProt P07766)
Assay: SPR, sensorgrams at 10-300 nM; set-up not given

B1: humanized 26H8 Fab (Fab, V domains shown)
VH: QVQLQESGPGLVKPSETLSLTCTASGYTFTNYYIHWVRQSPGKGLEWIGWIYCGDGSTKFNEQFKDRTTLSADHSKTQASLKLSSVTAADTAIYFCARDWAGSYFFDFWGQGTMVTVSS
VL: DIQMTQSPSSLSASVGDRVTITCKSSQSLLNSRTRKNYLAWYQQKPGKAPKLLIYWASTRESGVPSRFSGSGSGTDFTFTISSLQPEDIATYYCKQSYILRTFGGGTKVEIKR
- Kd: 49 nM
- koff: 0.015 s⁻¹
- kon: 300000 M⁻¹ s⁻¹
